# From patent publication US8129349B2, “Treatment of disease by inducing cell apoptosis” (The Regents of the University of California, priority 2000, dated 2012)
# T1: procaspase 1 (Homo sapiens, UniProt P29466)
# T1 construct: purchased Alexis Biochemicals 201-056
# T1 sequence (P29466 1-404): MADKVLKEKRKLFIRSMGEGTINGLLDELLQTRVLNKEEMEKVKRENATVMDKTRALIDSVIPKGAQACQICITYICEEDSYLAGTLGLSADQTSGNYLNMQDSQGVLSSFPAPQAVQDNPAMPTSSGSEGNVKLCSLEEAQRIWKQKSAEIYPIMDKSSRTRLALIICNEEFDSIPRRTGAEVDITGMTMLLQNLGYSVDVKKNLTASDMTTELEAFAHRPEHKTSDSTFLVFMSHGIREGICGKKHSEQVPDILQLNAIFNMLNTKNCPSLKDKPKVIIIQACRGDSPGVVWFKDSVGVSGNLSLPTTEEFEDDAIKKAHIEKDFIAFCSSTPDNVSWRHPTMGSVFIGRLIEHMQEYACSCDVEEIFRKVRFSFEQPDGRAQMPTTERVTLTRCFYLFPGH
# B1: C/EBPβ-Glu^217: modified murine C/EBPβ with mutation of Thr^217 to glutamic acid (SEQ ID NO:4), phosphorylation mimic (protein, listed as Mus musculus)
# chain: MHRLLAWDAACLPPPPAAFRPMEVANFYYEPDCLAYGAKAARAAPRAPAAEPAIGEHERAIDFSPYLEPLAPAADFAAPAPAHHDFLSDLFADDYGAKPSKKPADYGYVSLGRAGAKAAPPACFPPPPPAALKAEPGFEPADCKRADDAPAMAAGFPFALRAYLGYQATPSGSSGSLSTSSSSSPPGTPSPADAKAAPAACFAGPPAAPAKAKAKKZVDKLSDEYKMRRERNNIAVRKSRDKAKMRNLETQHKVLELTAENERLQKKVEQLSRELSTLRNLFKQLPEPLLASAGHC
# Biological target: T1, procaspase 1
# Test: Co-immunoprecipitation of purified recombinant procaspase 1 with recombinant C/EBPβ peptides
# Type: binding
# Settings: peptides 200 μM, procaspase 1 0.6 U, quantitated by densitometry
# Description: FIG. 5 provides results showing the direct association of C/EBPβ-Glu^217 with procaspases 1 and 8. […] Enzyme activity was measured in the absence (control) or presence of C/EBPβ peptides (200 μM) for 2 h, using a procaspases 1 (1U) (not shown) and 8 (0.2 μg) activity assay. Values are presented as the mean±one half the range of duplicates. Panel C provides results for cells cultured on a collagen type I matrix and incubated with the indicated cell permeant, purified synthetic N-acetyl, C-aldehyde C/EBPβ tetra-peptides (10 μM) or with recombinant C/EBPβ-HA peptides as indicated, together with the Chariot reagent (Active Motif) for 4 h. Control cells were incubated without peptides (P<0.05 for all peptides containing Ala^217).
# Purified recombinant C/EBPβ peptides, expressed as known in the art (See, Descombes et al., supra; and Buck et al. (1994), supra), and purified synthetic N-acetyl, C-aldehyde tetrapeptides (200 μM) (American Peptide Company) were assayed for their ability to inhibit the activity of purified human recombinant caspases 1 (catalogue # 201-056) and 8 (catalogue # 201-041-C005) (Alexis Biochemicals). The sequence of caspase 8 includes Ser217 through Asp479 cloned into an expression vector containing a 21 amino acid linker at the N-terminus. Thus, the prodomain (first 220 amino acids) is essentially missing. The fragment is cleaved at Asp385 and the active caspases are essentially identical to those identified in apoptotic cells (Stennicke and Salvesen, Meth. Enzymol., 322:91-100 (1997)). Caspase activity was determined by the release of the p-nitroaniline colorimetric (Alexis Biochemicals) substrate for caspase 1 (catalogue # 260-026) or 8 (catalogue # 260-045) within the linear part of the kinetic assay (Thornberry et al. (1997), supra; Stennicke and Salvesen, supra). Caspase 1 and 8 activity in cells was performed with colorimetric kits (catalogues # 850-211-K and 850-221-K) as described by the manufacturer (Alexis) (See also, Thornberry et al. (1997), supra). The caspase 8 inhibitor IETD was from Calbiochem (Catalogue # 218773).
# To delineate the role of C/EBPβ on the activation of procaspases 1 and 8, the self-activation of recombinant procaspases 1 and 8 was induced in vitro (Wilson et al., supra; Margolin et al., supra; and Earnshaw et al., supra), and the effect of purified recombinant C/EBPβ peptides, produced as described previously (Descombes et al., supra; and Buck et al., (1994), supra) on this process was determined. Consistent with the in vivo results described above, C/EBPβ-HA-Glu^217 and C/EBPβ 216-253-HA-Glu^217, but not C/EBPβ-HA-Ala^217, peptides associated with procaspases 1 and 8 (See, FIG. 5, Panel A). […]
molecule,measurement,value
B1,"Co-immunoprecipitation of procaspase 1, fold more than the Ala^217 peptides",7 fold
